From US20220396792, “METHOD FOR PRODUCING NUCLEIC ACID MOLECULE, BIOMATERIAL, AND METHOD FOR PRODUCING BIOMATERIAL” (NEC Solution Innovators, Ltd., published 2022)

B1: Aptamer 8 VEGF_L29_1 with 3' poly(dA)20 (ssDNA)
DNA: CTTAGTTTAAAGTCACGTCTTAGTTTAAGAAAAAAAAAAAAAAAAAAAA
B2: Aptamer 9 VEGF_L28_1 with 3' poly(dA)20 (ssDNA)
DNA: TTAGTTTAAAGTCACGTCTTAGTTTAAGAAAAAAAAAAAAAAAAAAAA
B3: Aptamer 10 VEGF_L28_2 with 3' poly(dA)20 (ssDNA)
DNA: CTTAGTTTAAAGTCACGTCTTAGTTTAAAAAAAAAAAAAAAAAAAAAA
B4: Aptamer 2 VEGF746CaP_5s31 with 3' poly(dA)20 (ssDNA)
DNA: CCTTAGTTTAAAGTCACGTCTTAGTTTAAGGAAAAAAAAAAAAAAAAAAAA
B5: Aptamer 4 VEGF746CaP_5s62 with 3' poly(dA)20 (ssDNA)
DNA: TTCACCGTAAACAGTTCTGGTTCCTTAGTTTAAAGTCACGTCTTAGTTTAAGGCATTCTGGAAAAAAAAAAAAAAAAAAAAA
B6: Aptamer 15 VEGF_L23_1 with 3' poly(dA)20 (ssDNA)
DNA: AGTTTAAAGTCACGTCTTAGTTTAAAAAAAAAAAAAAAAAAAA
B7: Aptamer 3 VEGF746CaP_5s49 with 3' poly(dA)20 (ssDNA)
DNA: CCGTAAACAGTTCTGGTTCCTTAGTTTAAAGTCACGTCTTAGTTTAAGGAAAAAAAAAAAAAAAAAAAA
B8: Aptamer 1 VEGF746CaP_R8m1 with 3' poly(dA)20 (ssDNA)
DNA: GGATTGCCCGATTCACCGTAAACAGTTCTGGTTCCTTAGTTTAAAGTCACGTCTTAGTTTAAGGCATTCTGGAGCGGCATAACAAAAAAAAAAAAAAAAAAAA
B9: Aptamer 5 VEGF746CaP_R8m49 with 3' poly(dA)20 (ssDNA)
DNA: GGATTGCCCGATTCACCGTAAACGTTCTTACATTAGTTTAAAGTCACGTCTTAGTTTAATTAAGCATTCTGGAGCGGCATAACAAAAAAAAAAAAAAAAAAAA
B10: Aptamer 7 VEGF_L30_2 with 3' poly(dA)20 (ssDNA)
DNA: CCTTAGTTTAAAGTCACGTCTTAGTTTAAGAAAAAAAAAAAAAAAAAAAA
B11: Aptamer 13 VEGF_L26_2 with 3' poly(dA)20 (ssDNA)
DNA: TTAGTTTAAAGTCACGTCTTAGTTTAAAAAAAAAAAAAAAAAAAAA
B12: Aptamer 14 VEGF_L25_1 with 3' poly(dA)20 (ssDNA)
DNA: TAGTTTAAAGTCACGTCTTAGTTTAAAAAAAAAAAAAAAAAAAAA
B13: Aptamer 12 VEGF_L26_1 with 3' poly(dA)20 (ssDNA)
DNA: TAGTTTAAAGTCACGTCTTAGTTTAAAAAAAAAAAAAAAAAAAAAA
B14: Aptamer 11 VEGF_L27_1 with 3' poly(dA)20 (ssDNA)
DNA: TTAGTTTAAAGTCACGTCTTAGTTTAAAAAAAAAAAAAAAAAAAAAA
B15: Aptamer 6 VEGF_L30_1 with 3' poly(dA)20 (ssDNA)
DNA: CTTAGTTTAAAGTCACGTCTTAGTTTAAGGAAAAAAAAAAAAAAAAAAAA

How the values were obtained:
VEGF165 [1] = molecular target: T1, VEGF165 (UniProt P15692-4 P15692-4:27-191); assay: SPR; 25 C, SB1T pH 7.4, 1 mM MgCl2, 0.01% Tween 20; conditions: tags: PeproTech 100-20; chain copies: 2
Procedure: (§1) First, as a sensor chip designed specifically for the ProteOn, a streptavidin-immobilized chip (trade name: ProteOn NLC Sensor Chip, BioRad) was set in the ProteOn XPR36. 5 μmol/L biotinylated poly(dT) was injected to a flow cell of the sensor chip using ultrapure water (DDW), and the binding was allowed to proceed until the signal intensity (RU: Resonance Unit) was saturated. The biotinylated poly(dT) was prepared by biotinylating the 5′ end of 20-mer deoxythymidine. Then, each of the poly(dA)-added aptamers (200 nmol/L) was injected to the flow cell of the chip using an SB1T buffer at a flow rate of 25 μL/min for 80 seconds, and the binding was allowed to proceed until the signal intensity was saturated. Subsequently, each of the samples (5 nmol/L) was injected using an SB1T buffer at a flow rate of 50 μL/min for 300 seconds, followed by washing performed by flowing the SB1T buffer under the same conditions. With the time at which the injection was started being 0 seconds, the signal intensity after the sample injection was measured. The SPR was carried out at 25° C.
The pH of the SB1T buffer was 7.4.

[2] = molecular target: BSA (bovine serum albumin) (Bos taurus, UniProt P02769 P02769:25-607); assay: SPR; signal 0 or less, 5 nM, 25 C; conditions: tags: Sigma A7906
Procedure: (§2) The analysis of the binding properties was carried out using a ProteOn XPR36 (BioRad) in accordance with its instructions for use.
as §1
(§3) The horizontal axis indicates the time (sec) elapsed after the start of the sample injection, and the vertical axis indicates the signal intensity (RU).

VEGF121 = VEGF121 (UniProt P15692-9 P15692-9:27-147); assay: SPR; signal 0 or less, 5 nM, 25 C; conditions: tags: PeproTech 100-20A; chain copies: 2
Procedure: as §2, §1, §3

[3] = molecular target: VEGF receptor (KDR/VEGFR2) (UniProt P35968 P35968:20-764); assay: SPR; 5 nM receptor alone, 25 C; receptor binds aptamer-bound VEGF165; conditions: tags: R&D Systems 357-KD-050/CF; chain copies: 2
Procedure: The aptamers 1 to 5 were used as aptamers, and the VEGF sample and a VEGF receptor sample were used as samples. The VEGF receptor sample was prepared in the same manner as the VEGF sample, except that a VEGF receptor (R&D systems, Cat. No: 357-KD-050/CF) was used instead of the VEGF.
The analysis of binding properties by SPR was carried out in the following manner. First, biotinylated poly(dT) was bound to the sensor chip and each of the poly(dA)-added aptamers was then bound to the chip in the same manner as in Example 1. Subsequently, the 5 nmol/L VEGF sample was injected using an SB1T buffer at a flow rate of 50 μL/min for 240 seconds (first injection), followed by washing performed by flowing the SB1T buffer under the same conditions. Thereafter, the 5 nmol/L VEGF receptor sample was injected using an SB1T buffer at a flow rate of 50 μL/min for 240 seconds (second injection), followed by washing performed by flowing the SB1T buffer under the same conditions. With the time at which the first injection was started being 0 seconds, the signal intensity after the sample injection was measured. The SPR was carried out at 25° C. Also, analysis of binding properties by SPR was carried out in the same manner, except that the first and second injections were performed using the combinations shown in Table 1 below instead of the combination of the VEGF sample and the VEGF receptor sample.
FIGS. 8A to 8E are graphs respectively showing the binding properties of the aptamers 1 to 5 to the samples. […] The horizontal axis indicates the time (sec) elapsed after the start of the first injection, and the vertical axis indicates the signal intensity (RU).

VEGF165 [4] = molecular target: T1, VEGF165; assay: SPR; 37 C, no Ca, 1 nM VEGF165; conditions: tags: PeproTech 100-20; chain copies: 2

Sequence of VEGF receptor (KDR/VEGFR2) (P35968 20-764, one chain of several): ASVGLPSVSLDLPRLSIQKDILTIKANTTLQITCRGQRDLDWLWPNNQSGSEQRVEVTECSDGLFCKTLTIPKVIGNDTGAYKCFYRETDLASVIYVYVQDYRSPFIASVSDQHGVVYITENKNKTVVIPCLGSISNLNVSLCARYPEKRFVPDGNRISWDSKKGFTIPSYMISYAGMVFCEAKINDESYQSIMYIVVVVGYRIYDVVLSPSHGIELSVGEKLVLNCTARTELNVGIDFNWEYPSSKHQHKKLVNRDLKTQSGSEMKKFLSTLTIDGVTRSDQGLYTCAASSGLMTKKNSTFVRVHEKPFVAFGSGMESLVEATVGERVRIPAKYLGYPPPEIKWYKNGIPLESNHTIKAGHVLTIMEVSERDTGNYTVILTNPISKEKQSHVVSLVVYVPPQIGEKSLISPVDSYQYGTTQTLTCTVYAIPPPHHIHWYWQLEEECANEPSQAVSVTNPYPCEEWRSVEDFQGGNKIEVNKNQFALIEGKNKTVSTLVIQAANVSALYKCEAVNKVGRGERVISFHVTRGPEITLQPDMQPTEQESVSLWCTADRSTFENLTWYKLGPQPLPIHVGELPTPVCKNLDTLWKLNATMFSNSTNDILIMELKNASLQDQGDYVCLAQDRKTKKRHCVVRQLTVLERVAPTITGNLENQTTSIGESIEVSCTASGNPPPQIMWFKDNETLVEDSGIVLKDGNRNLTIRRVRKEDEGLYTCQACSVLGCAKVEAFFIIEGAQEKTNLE
Sequence of VEGF121 (P15692 other isoform, or with tags, fused parts or gaps): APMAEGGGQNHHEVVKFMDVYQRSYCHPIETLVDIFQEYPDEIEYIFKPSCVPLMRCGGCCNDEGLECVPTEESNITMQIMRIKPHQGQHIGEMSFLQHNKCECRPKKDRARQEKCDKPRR
Sequence of BSA (bovine serum albumin) (P02769 25-607, one chain of several): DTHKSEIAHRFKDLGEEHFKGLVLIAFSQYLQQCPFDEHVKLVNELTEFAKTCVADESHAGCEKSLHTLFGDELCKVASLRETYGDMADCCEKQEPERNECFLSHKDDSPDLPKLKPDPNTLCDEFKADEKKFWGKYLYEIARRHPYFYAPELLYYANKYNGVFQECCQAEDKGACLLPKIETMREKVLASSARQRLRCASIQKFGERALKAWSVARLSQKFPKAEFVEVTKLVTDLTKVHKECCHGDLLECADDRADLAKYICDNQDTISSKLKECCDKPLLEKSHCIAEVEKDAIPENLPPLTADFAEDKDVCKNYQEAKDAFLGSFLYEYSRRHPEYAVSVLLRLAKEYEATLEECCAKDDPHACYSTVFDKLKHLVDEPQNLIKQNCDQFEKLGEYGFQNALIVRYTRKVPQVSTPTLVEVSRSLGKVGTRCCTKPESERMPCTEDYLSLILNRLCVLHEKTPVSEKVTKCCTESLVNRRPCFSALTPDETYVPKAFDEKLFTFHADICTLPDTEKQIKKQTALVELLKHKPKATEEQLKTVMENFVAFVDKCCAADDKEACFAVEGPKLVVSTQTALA
T1 sequence (P15692 other isoform, or with tags, fused parts or gaps): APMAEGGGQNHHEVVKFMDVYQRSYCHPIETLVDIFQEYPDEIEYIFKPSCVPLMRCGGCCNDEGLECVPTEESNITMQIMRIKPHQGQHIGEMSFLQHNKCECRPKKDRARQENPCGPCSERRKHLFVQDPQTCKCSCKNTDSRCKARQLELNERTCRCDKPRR

Binder | Kd (VEGF165 [1]) [nM] | binding result [2] | binding result (VEGF121) | binding result [3] | binding result (VEGF165 [4])
B1 | 0.0993 | – | – | – | –
B2 | 0.0149 | – | – | – | –
B3 | 4170 | – | – | – | –
B4 | – | no binding | no binding | no binding | binds
B5 | – | no binding | no binding | no binding | binds
B6 | 92.7 | – | – | – | –
B7 | – | no binding | no binding | no binding | binds
B8 | – | no binding | no binding | no binding | binds
B9 | – | no binding | no binding | no binding | binds
B10 | < 0.001 | – | – | – | –
B11 | 3.49 | – | – | – | –
B12 | 800 | – | – | – | –
B13 | 0.0545 | – | – | – | –
B14 | 0.0276 | – | – | – | –
B15 | < 0.001 | – | – | – | –
